Where a chain is given by its changes, count along the chain named. Names and notes keep the numbering of the source.
Columns and labels:
[1] = target: the molecule itself; test: SEC; 100 micrograms of protein on a superose-6 column (HR10/30); 20 mM Tris-HCl pH 7.5, 150 mM NaCl, 10% glycerol; 22°C, 0.2 ml/min; A280; size markers thyroglobulin, ferritin, albumin, ovalbumin
MCM Q176A = target: T1, MCM Q176A (Methanothermobacter thermautotrophicus, UniProt O27798 1-666, Q176A); test: filter binding; 10 mM Mg2+, no ATP; 25 mM Hepes-NaOH pH 7.5, 2 mM DTT, 10 mM MgCl2, 100 ug/ml BSA, 50 fmol 32P-DNA in 20 ul, 10/30/90 nM MCM monomer (25 nM for the ATP test), 60 C, 10 min; nitrocellulose filter washed with 20 mM Tris-HCl pH 7.5; settings: protein: recombinant; tags: C-terminal His6; chain copies: 6; label: 32P (T4 PNK, 5' end); blunt
T1 sequence: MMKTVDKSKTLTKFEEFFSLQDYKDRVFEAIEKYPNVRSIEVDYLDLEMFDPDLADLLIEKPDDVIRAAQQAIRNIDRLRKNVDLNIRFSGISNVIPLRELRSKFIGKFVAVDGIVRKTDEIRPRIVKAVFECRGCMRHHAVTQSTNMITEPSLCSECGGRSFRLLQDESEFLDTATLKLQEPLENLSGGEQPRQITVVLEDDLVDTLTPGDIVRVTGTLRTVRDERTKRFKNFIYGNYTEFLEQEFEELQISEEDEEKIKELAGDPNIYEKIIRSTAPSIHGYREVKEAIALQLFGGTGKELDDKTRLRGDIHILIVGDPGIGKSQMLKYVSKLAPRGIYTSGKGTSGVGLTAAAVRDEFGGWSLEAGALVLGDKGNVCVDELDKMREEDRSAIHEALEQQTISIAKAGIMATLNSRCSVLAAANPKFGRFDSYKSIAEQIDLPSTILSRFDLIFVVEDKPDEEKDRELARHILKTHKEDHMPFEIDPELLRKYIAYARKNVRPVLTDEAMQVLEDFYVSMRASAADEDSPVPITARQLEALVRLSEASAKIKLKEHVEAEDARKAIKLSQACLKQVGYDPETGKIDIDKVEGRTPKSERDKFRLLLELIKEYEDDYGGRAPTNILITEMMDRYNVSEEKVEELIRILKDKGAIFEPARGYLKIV

MCM P210G [2] = target: T2, MCM P210G (Methanothermobacter thermautotrophicus, UniProt O27798 1-666, P210G); test: as above; settings: protein: recombinant; tags: C-terminal His6; chain copies: 6; label: 32P (T4 PNK, 5' end); blunt
T2 sequence: T1 sequence with A176Q, P210G

MCM G218A = target: T3, MCM G218A (Methanothermobacter thermautotrophicus, UniProt O27798 1-666, G218A); test: as above; settings: protein: recombinant; tags: C-terminal His6; chain copies: 6; label: 32P (T4 PNK, 5' end); blunt
T3 sequence: T1 sequence with A176Q, G218A

MCM G211A [3] = target: T4, MCM G211A (Methanothermobacter thermautotrophicus, UniProt O27798 1-666, G211A); test: as above; settings: protein: recombinant; tags: C-terminal His6; chain copies: 6; label: 32P (T4 PNK, 5' end); blunt
T4 sequence: T1 sequence with A176Q, G211A

MCM PG210,211GA = target: T5, MCM PG210,211GA (Methanothermobacter thermautotrophicus, UniProt O27798 1-666, P210G;G211A); test: filter binding; 10 mM Mg2+, no ATP; better than wild-type; 25 mM Hepes-NaOH pH 7.5, 2 mM DTT, 10 mM MgCl2, 100 ug/ml BSA, 50 fmol 32P-DNA in 20 ul, 10/30/90 nM MCM monomer (25 nM for the ATP test), 60 C, 10 min; nitrocellulose filter washed with 20 mM Tris-HCl pH 7.5; settings: protein: recombinant; tags: C-terminal His6; chain copies: 6; label: 32P (T4 PNK, 5' end)
T5 sequence: T1 sequence with A176Q, P210G, G211A

MCM P210G [4] = target: T2, MCM P210G; test: as above; settings: protein: recombinant; tags: C-terminal His6; chain copies: 6; label: 32P (T4 PNK, 5' end)
MCM G211A [5] = target: T4, MCM G211A; test: as above; settings: protein: recombinant; tags: C-terminal His6; chain copies: 6; label: 32P (T4 PNK, 5' end)

B1: Methanothermobacter thermautotrophicus MCM protein, V214A mutant (enzyme, UniProt O27798 1-666, looked up)
chain: T1 sequence with A176Q, V214A
notes: MCM helicase of Methanothermobacter thermautotrophicus, derivative of the full-length enzyme; source: E. coli DE3 codon plus cells, purified on a Ni-column
- binding result [1]: binds

B2: Methanothermobacter thermautotrophicus MCM protein, G218A mutant (enzyme, UniProt O27798 1-666, looked up)
chain: T1 sequence with A176Q, G218A
notes: as for B1
- binding result [1]: binds

B3: 49-mer dsDNA (dsDNA)
DNA 1: GCAGATAACAGTTGTCCTGGAGAACGACCTGGTTGACACCCTCACACCC
DNA 2: GGGTGTGAGGGTGTCAACCAGGTCGTTCTCCAGGACAACTGTTATCTGC
- binding signal (MCM Q176A): ~50 % reduction vs wild-type
- binding signal (MCM P210G [2]): ~50 % reduction vs wild-type
- binding signal (MCM G218A): ~25 % reduction vs wild-type
- binding signal (MCM G211A [3]): ~50 % reduction vs wild-type

Binder: GCAGATAACAGTTGTCCTGGAGAACGACCTGGTTGACACCCTCACACCC (ssDNA) [49-mer ssDNA]
- binding result (MCM PG210,211GA): binds
- binding result (MCM P210G [4]): binds
- binding result (MCM G211A [5]): binds
